One experiment addresses T1, A.9004SS V1/V2 tags.
T1 V1V2 tags construct: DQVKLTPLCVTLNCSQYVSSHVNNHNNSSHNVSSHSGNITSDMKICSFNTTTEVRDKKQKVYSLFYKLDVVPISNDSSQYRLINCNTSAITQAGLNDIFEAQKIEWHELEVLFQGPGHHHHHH
Nature of the experiment: ELISA, OD405 at 10 ug/ml. On the technique in general: ELISA stands for enzyme-linked immunosorbent assay.

A further experiment concerns the target B.63521_V1/V2 tags. Nature of the experiment: ELISA, OD405 at 10 ug/ml.
Another experiment deals with B.Case A2 V1/V2 tags. Nature of the experiment: ELISA, OD405 at 10 ug/ml.
For experiment [1], the target named is Con 6 gp120. Nature of the experiment: ELISA, OD405 at 10 ug/ml.
Experiment [2] concerns the target G.con gp140CF. Nature of the experiment: ELISA, OD405 at 10 ug/ml.
For another experiment, the target named is AE.A244 V1V2 Tags (HIV-1). Nature of the experiment: ELISA, OD405 at 10 ug/ml.
Experiment [3] has as its target T2, AE.A244 gp120 delta 11 (HIV-1).
T2 construct: also called E.A244gp120Δ11; AE.A244 Δ11 gp120
Nature of the experiment: ELISA, OD405 at 10 ug/ml.

In the next experiment the target is C.CAP206 gp140CF.12 (HIV-1). Nature of the experiment: ELISA, OD405 at 10 ug/ml.
A further experiment deals with T3, gp70 B.CaseA2 V1/V2 (HIV-1 V1V2 on murine leukemia virus gp70).
T3 construct: also called B.gp70CaseA2 V1/V2; gp70 B.CaseAV1V2
T3 chain: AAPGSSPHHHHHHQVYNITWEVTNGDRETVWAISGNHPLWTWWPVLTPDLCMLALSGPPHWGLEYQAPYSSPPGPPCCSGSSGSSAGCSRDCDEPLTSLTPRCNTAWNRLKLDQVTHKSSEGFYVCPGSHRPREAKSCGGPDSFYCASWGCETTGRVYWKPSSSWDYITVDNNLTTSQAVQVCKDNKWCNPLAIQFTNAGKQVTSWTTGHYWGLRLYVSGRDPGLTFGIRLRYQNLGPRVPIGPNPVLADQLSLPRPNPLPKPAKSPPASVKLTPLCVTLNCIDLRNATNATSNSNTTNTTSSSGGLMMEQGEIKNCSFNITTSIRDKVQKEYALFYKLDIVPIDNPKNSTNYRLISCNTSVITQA
Nature of the experiment: ELISA, OD405 at 10 ug/ml.

The target of the next experiment is C.1086 V1V2 Tags (HIV-1). Nature of the experiment: ELISA, OD405 at 10 ug/ml.
For the next experiment, the target named is T4, gp70 C.1086 V1/V2 (HIV-1 V1V2 on murine leukemia virus gp70).
T4 construct: also called C.gp70 1086C V1V2; C.1086gp70V1V2
T4 chain: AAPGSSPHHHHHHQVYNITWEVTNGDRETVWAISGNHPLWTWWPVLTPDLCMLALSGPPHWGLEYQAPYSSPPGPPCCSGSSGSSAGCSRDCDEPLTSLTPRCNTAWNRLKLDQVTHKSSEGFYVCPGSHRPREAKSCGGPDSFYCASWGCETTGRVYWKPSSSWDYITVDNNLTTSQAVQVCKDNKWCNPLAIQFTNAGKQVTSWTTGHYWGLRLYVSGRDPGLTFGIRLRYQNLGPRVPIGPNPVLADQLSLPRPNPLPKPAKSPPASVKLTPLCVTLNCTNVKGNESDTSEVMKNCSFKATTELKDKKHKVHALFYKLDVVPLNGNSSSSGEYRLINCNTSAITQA
Nature of the experiment: ELISA, OD405 at 10 ug/ml.

Another experiment has as its target A.Q23 V1V2 tags (HIV-1). Nature of the experiment: ELISA, OD405 at 10 ug/ml.
A further experiment concerns the target T5, B.HXB/BAL gp140CFI (HIV-1, UniProt P04578 33-680).
T5 construct: also called B.HxB/Ba gp140 CFI
Nature of the experiment: ELISA, OD405 at 10 ug/ml.

In a further experiment the target is B.9021 gp140C (HIV-1). Nature of the experiment: ELISA, OD405 at 10 ug/ml.
The target in experiment [4] is T2, AE.A244 gp120 delta 11.
A further experiment addresses T6, A.9004SS V1V2 Tags.
T6 Env construct: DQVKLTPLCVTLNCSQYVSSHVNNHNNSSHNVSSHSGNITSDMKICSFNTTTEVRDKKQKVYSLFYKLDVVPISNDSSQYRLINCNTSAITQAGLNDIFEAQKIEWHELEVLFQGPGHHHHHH
Nature of the experiment: ELISA, OD405 at 10 ug/ml mAb.

For experiment [5], the target named is T7, AE.con gp140CF.
T7 construct: also called AE.con.env03 gp140CF
Nature of the experiment: ELISA, OD405 at 10 ug/ml mAb.

Experiment [6] has as its target T8, C.1086 gp140.
T8 construct: also called C.1086gp140C
Nature of the experiment: ELISA, OD405 at 10 ug/ml mAb.

Another experiment has as its target T9, D.9009SA V1V2 Tags.
T9 Env construct: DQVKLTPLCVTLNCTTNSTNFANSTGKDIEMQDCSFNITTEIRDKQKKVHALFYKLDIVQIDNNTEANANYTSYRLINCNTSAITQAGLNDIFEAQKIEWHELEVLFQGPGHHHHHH
Nature of the experiment: ELISA, OD405 at 10 ug/ml mAb.

The target of experiment [7] is AE.con gp140CF. Nature of the experiment: ELISA, OD405 at 10 ug/ml.
The next experiment concerns the target B.040 gp140C. Nature of the experiment: ELISA, OD405 at 10 ug/ml.
A further experiment addresses T10, B.62357 gp140C.
T10 construct: also called B.62357 140C
Nature of the experiment: ELISA, OD405 at 10 ug/ml.

For the next experiment, the target named is B.con gp140CF. Nature of the experiment: ELISA, OD405 at 10 ug/ml.
Experiment [8] has as its target T11, C.1086 gp140.
T11 construct: also called C.1086gp140C
Nature of the experiment: ELISA, OD405 at 10 ug/ml.

The target of experiment [9] is Con 6 gp120. Nature of the experiment: ELISA, OD405 at 10 ug/ml. This is another data set of the same source.
In experiment [10] the target is G.con gp140CF. Nature of the experiment: ELISA, OD405 at 10 ug/ml. This is another data set of the same source.

Like-named read-outs stand apart in the source and are kept apart here.

B1: PG16 reverted unmutated ancestor antibody (antibody, V domains shown)
VH: QVQLVESGGGVVQPGRSLRLSCAASGFTFSSYGMHWVRQAPGKGLEWVAVISYDGSNKYYADSVKGRFTISRDNSKNTLYLQMNSLRAEDTAVYYCAREAGGPIWHDDVKYYDFNDGYYYYYYMDVWGKGTTVTVSS
VL: QSALTQPASVSGSPGQSITISCTGTSSDVGSYNLVSWYQQHPGKAPKLMIYEVSKRPSGVSNRFSGSKSGNTASLTISGLQAEDEADYYCCSLTDRSHRIFGGGTKLTVL
notes: also called PG16 RUA; PG16_RUA
As for B1, the binding result with A.9004SS V1/V2 tags, with B.63521_V1/V2 tags, in the experiment with B.Case A2 V1/V2 tags, in the experiment with Con 6 gp120 [1], with G.con gp140CF [2] and with AE.A244 V1V2 Tags was “no binding (tested: 10 ug/ml)” each time. Besides, the binding result with AE.A244 gp120 delta 11 [3], with C.CAP206 gp140CF.12, with gp70 B.CaseA2 V1/V2, in the experiment with C.1086 V1V2 Tags, with gp70 C.1086 V1/V2 and with A.Q23 V1V2 tags was “no binding (tested: 10 ug/ml)” in each case. Moreover, the binding result in the experiment with B.HXB/BAL gp140CFI and with B.9021 gp140C was “no binding (tested: 10 ug/ml)” throughout.

B2: CH59 (antibody, V domains shown)
VH: EVQLVESGGGLVQPGRSLRLSCAASGFTFDDGAMHWVRQAPGKGLEWVSGISWNSNIIAYADSVKGRFTISRDNAKNSLYLEMNSLRVEDTALYYCAKDSPRGELPLNYWGQGTLVTVSS
VL: SYELTQPPSVSVSPGQTARITCSGDALPKNYAYWYQQKSGQAPVLVIYEDSKRPSGIPERFSGSSSGTMATLTISGAQVEDEADYYCYSTDSSGNHRVFGGGTKLTVL
notes: also called mAb CH59
As to B2, in the experiment with AE.A244 gp120 delta 11 [4], the koff was found to be 0.00013 s⁻¹. For the same molecule, in the experiment with AE.A244 gp120 delta 11 [4], the on-rate constant (kon) was determined as 58300 M⁻¹ s⁻¹. The binding result with A.9004SS V1V2 Tags, in the experiment with AE.con gp140CF [5], with C.1086 gp140 [6] and with D.9009SA V1V2 Tags was “binds” in each case.

B3: CH58 reverted unmutated ancestor antibody (antibody, V domains shown)
VH: EVQLVQSGAEVKKPGESLKISCKGSGYSFTSYWIGWVRQMPGKGLEWMGIIYPGDSDTRYSPSFQGQVTISADKSISTAYLQWSSLKASDTAMYYCARLGGRYYYDSSGYYYFDYWGQGTLVTVSS
VL: NFMLTQPHSVSESPGKTVTISCTRSSGSIASNYVQWYQQRPGSSPTTVIYEDNQRPSGVPDRFSGSIDSSSNSASLTISGLKTEDEADYYCQSYDSSSWVFGGGTKLTVL
notes: also called CH58 RUA; CH58_RUA
On to B3, for which the binding result with AE.con gp140CF [7], with B.040 gp140C, with B.62357 gp140C, in the experiment with B.con gp140CF, in the experiment with C.1086 gp140 [8] and with Con 6 gp120 [9] was “no binding (tested: 10 ug/ml)” each time. In addition, the binding result with G.con gp140CF [10] is “no binding (tested: 10 ug/ml)”.

Usually koff stands for the rate constant with which the complex falls apart. Low readings indicate slow dissociation, high ones fast dissociation. By kon is commonly meant the rate constant with which the complex forms. A lower kon goes with slow association.

(Values after US9988424 (DUKE UNIVERSITY, dated 2018).)
